For 1 substance, Circuit Expression (inducible BFP reporter) results are on record in patent publication US20240165163A1.

In the assay the target is human CD19 (human) (UniProt P15391). Description: cell-based or functional assay.
Sequence of UniProt P15391 (P15391 20-556): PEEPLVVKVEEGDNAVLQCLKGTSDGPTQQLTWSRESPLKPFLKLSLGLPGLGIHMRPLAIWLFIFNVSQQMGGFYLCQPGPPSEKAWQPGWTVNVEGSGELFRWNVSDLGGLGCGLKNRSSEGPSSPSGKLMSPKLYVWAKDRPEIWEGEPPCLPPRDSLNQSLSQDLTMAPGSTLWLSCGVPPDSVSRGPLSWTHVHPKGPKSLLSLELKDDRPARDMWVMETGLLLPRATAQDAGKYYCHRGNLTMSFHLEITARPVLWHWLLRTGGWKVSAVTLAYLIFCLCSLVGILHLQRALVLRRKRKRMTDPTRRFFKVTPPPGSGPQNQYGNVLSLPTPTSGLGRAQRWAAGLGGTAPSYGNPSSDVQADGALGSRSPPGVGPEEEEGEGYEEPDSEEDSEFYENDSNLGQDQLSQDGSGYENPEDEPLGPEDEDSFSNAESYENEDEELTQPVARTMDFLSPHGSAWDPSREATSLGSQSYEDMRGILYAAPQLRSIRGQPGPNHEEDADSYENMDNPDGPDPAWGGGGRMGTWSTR

The substance “antiCD19scFv-CD8Hinge2-Notch1TMD-Notch2STS-truncCD28delTPRRP-CD3z-Gal4VP64 (receptor)” gave a Circuit Expression (inducible BFP reporter) above 80%.
